Laboratory results from paper PMC7951975.

Biological target: GraS (native), fused to the T18 fragment of adenylate cyclase (Staphylococcus aureus) (UniProt Q2G0D9)
UniProt Q2G0D9, sequence (Q2G0D9 whole entry, the tested form may be a part): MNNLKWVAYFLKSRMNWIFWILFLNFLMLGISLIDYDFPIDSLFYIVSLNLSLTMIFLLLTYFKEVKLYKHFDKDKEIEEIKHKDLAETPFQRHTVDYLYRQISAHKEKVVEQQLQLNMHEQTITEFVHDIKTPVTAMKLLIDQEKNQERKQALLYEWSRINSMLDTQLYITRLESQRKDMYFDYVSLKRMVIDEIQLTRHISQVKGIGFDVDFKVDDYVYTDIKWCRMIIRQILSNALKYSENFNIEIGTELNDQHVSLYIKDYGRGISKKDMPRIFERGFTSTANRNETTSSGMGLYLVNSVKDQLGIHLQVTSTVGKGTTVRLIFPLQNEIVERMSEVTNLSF

**Q.** With “EL peptide of VraG (wild type) (domain or fragment)” as the substance, how does the survival of the ΔEL vraG mutant of JE2 in a 2-hr. killing assay with 2.5 μg/ml LL-37 in the presence of ~300 ng exogenous EL peptide read?
**A.** 40%
